Experiment: soluble on expression in E. coli; label from the status in PepcDB or PDB records

Sequence	soluble on expression in E. coli
MAHHHHHHMLLSVLHAPRQASIAAPLHKVQSCAYAAPDTVSAVLADCLGKDIAPVLRYLTAFATPPVSKPTSHQSHHLAASTRVLRHALVLLLYSFVTTWRGAPPRETPPPPGAIALTREERALALELCRCVAALNESDTGSESIATGERRGDTSAQAHSRDARAEATGSHVTSLEAVTGAQFALVRDALADMLAPDHHSDGSAASTPVRARDSVAGNGPLWRACEAWIAGAVGTAVGASVAPPSSPFAGITGVRMKEEEAVDLLERVNDQLNQIARGGAVNAASRQCGNSAAMP	not soluble
MKFYILLVVLVAFVAAKPHPGYGRPSYGGGYGGGGGDFGGGGSGGQWGSQSSSFQQSQSSGGFQNNAGGGFGGGMGPGGGGWGRR	not soluble
MGSDKIHHHHHHMTISISEPTPPASLLAIKDEIRAEALKLGFSVCGFASATDAWPNGGWLREFVQAERHGAMGWMEETLERRSHPTAMWTDAKSAVVLGVNYGPDIDPLEQLADPARAAISVYAQGDDYHDVIKKRLKVLAGWMHRRFGQEVKVFVDTAPLLEKPLAQRAGLGWQGKHTNLVSRQFGSWLFLGSVLTTLDLPADDAEVDHCGSCRACLDVCPTNAFPAPRQLDARRCISYLTIELSGPIPAEFRPAMGNRIYGCDDCLAVCPWNKFASLSNEAKLVAREALRQPSLAELAVLDDAAFRALFSKNPIKRIGRDRFVRNVLYAIGNSGDAGLMAVVEPLLDDPAPVVRGAAVWAARRLLGDDAAALKRGENDESVLAEWS	not soluble
MSDDARFQQLNCWLDSCLPELFVAEGWGEVPPAELIPASSDASFRRYFRWQGGDRSLVVMDAPPPQEDCRPFVKVAGLLAGAGVHVPRILAQDLENGFLLLSDLGRQTYLDVLHPGNADELFEPALDALIAFQKVDVAGVLPAYDEAVLRRELQLFPDWYLARHLGVELEGETLARWKRICDLLVRSALEQPRVFVHRDYMPRNLMLSEPNPGVLDFQDALHGPVTYDVTCLYKDAFVSWPEPRVHAALNRYWKKATWAGIPLPPSFEDFLRASDLMGVQRHLKVIGIFARICHRDGKPRYLGDVPRFFRYLETAVARRPELAELGELLASLPQGAEA	not soluble
MALYAVDKPLHLTSHDVVEEARRRLSTRRVGHTGTLDPLATGLLLLVTNESTKLVPFLSGEDKEYIAWVSFGATTPTLDAEGPISEEAPARFDRKDLEAALPRFLEVREQVPPLYSAIKVGGKRAYEAAREGKPLALGPRPVRYLEVELLAFDPEPIPHPIAPSARGWRLAERRGRPVRLPRPLGAYPTAVVRLVVGPGTYVRAFARDLGEMLGTKAFLSGLVRTRVGRVGLERAVALSDLSPEKAIPELDVLPFPVVELSHTEARRVLEGMPLPIPAMGYVTLVDSKRRLLAIAEGDGFKLKIRRVFAKEA	soluble
MNVSVNIKNVTKEYRIYRTNKERMKDALIPKHKNKTFFALDDISLKAYEGDVIGLVGINGSGKSTLSNIIGGSLSPTVGKVDRNGEVSVIAISAGLSGQLTGIENIEFKMLCMGFKRKEIKAMTPKIIEFSELGEFIYQPVKKYSSGMRAKLGFSINITVNPDILVIDEALSVGDQTFAQKCLDKIYEFKEQNKTIFFVSHNLGQVRQFCTKIAWIEGGKLKDYGELDDVLPKYEAFLNDFKKKSKAEQKEFRNKLDESRFVIK	not soluble
MKAYRIHVQGIVQAVGFRPFVYRIAHAHNLKGFVRNLGDAGVEIVIEGNEEDIEGFLVDLYKKKPPIARIDKVEKEEIPPQGFDRFYIEKSSTEKKGEGDSIIPPDIAICDDCLKELFDPTNKRYMYPFIVCTNCGPRFTIIEDLPYDRENTAMREFPMCEFCRSEYEDPLNRRYHAEPVACPTCGPSYRLYTNDGNEIVGDPLRKAAKLIDKGYIVAIKGIGGIHLACDATREDVVVELRKRIFRPQKPFAIMAKDLETIRTFAYVSPEEEEELTSYRRPIVALKKKEPFPLPENLAPGLHTIGVMLPYAGTHYILFHWSETPVYVMTSANFPGMPMIKDNEEAFEKLRDVADYLLLHNRRIPNRADDSVVRFVDGRRAVIRRSRGFVPLGIEIPFEYKGLAVGAGLMNAFGVSKSGKVYPSQYIGDTSKIEVLEFMRDAIRHFFKILRIDSLDLVVADLHPSYNTTKLGMEIAEEFGAEFLQVQHHYAHVASVMAEHNLEEVVGIALDGVGYGTDGKTWGGEVIYLGYEDVERLAHIEYYPLPGGDLASYYPLRALIGILSLNHDFEEVEKIIREFCPNAIKSLKYGETEFKVILRQLSSGINVAYASSTGRVLDAFSVLLNVSYRRHYEGEPAMKLESFAYQGKNDLNLTVPIEGEEIKVSELFEEVLELMGKVNPRDIAYSVHLALARAFAEVSVEKAKEFGVKTVVLGGGVGYNELIVKTIRKIVEGRELRFLTTYEVPRGDNGINVGQAFLGGLYLEGYLNREDLSI	soluble
MGSDKIHHHHHHMVPMTRFDSATEVVRVGENRYAVELDPGYLIGTAMNGGYLMTVLQRSALAESDHLHAVSSSYHFHRPASSGPAEIETRVLKRGRTVTTVQTTLFQEGRTILTGTLATATLDPHAEPRYAAPQPAIPPQHQCRRVDPRQSHLPDDGFLARVDVDFSPDSYAALARERTVTTPELCGYVDLSARDGGSAKDPLAFLPLAVDALPPIVSLLVDWSWAPTVELTWHLRAIPEPGPLAFRSTCALVSDGWFDENVDLWDARGRLVAQSRQLARVGR	not soluble
MGSDKIHHHHHHMNNKIYFTPGPSELYPTVRQHMITALDEKIGVISHRSKKFEEVYKTASDNLKTLLELPSNYEVLFLASATEIWERIIQNCVEKKSFHCVNGSFSKRFYEFAGELGREAYKEEAAFGKGFYPADITVPADAEIICLTHNETSSGVSMPVEDINTFRDKNKDALIFVDAVSSLPYPKFDWTKIDSVFFSVQKCFGLPAGLGVWILNDRVIEKSKALLAKRKSIGTYHTIPSMLEKARVNQTPETPNAMNIFLLGKVTGDMLQISADGIRKQTEEKAALINTYIESSKVFSFGVEDAKLRSMTTIVANTTMLPGEINKILEPFDMAVGAGYGSKKETQIRIANFPAHSLEQVHKLVQTLKEKIG	not soluble
MQAVNTTSGGAVGVDRKQYMFSMLSSQEVDQMYAQSYQKTLGEAKSAGVLDTSSADARRVKAIAQRLIPQTAAFRPDATGWNWEVNVVKSDELNANCGPGGKIIFYTGLIDKLKLTDDEIAAVMGHEIAHALREHGREAMSKAYGVQVASQIGALAGLGQESLQLANTGVDYLMTLPNSRANENEADLIGLELAARAGYNPEAAITLWQKMGRASGGASQPEFTSTHPSDSSRMANLQAAIPKVMPLYQQARRGKLEHHHHHH	soluble
MFSVTLLVVSCGILAAAYPYSQQYGNYDQQYSQQSQYYPSSGQQGYRGGYQSNPGMQGGYQGNGQDSYQDFQGYQGYQRGQGGQRGYQGYQSNQRSQGSYPERYDSSMYSPVMDLTNYYGSQGTPQYYGYPSSASYQMTPYYQNQNQGYMQQQQYNTPSQSSWSPMYYGNGYQSQQSQQQQSSMGIRPYQSSWGQTQGTNTWGSPYQFTKVDAQVTDDDNVDGSGMDSSEQTSSPASTDDSQMTSNDD	not soluble
MGSDKIHHHHHHMTMKTRDKILLSSLELFNDKGERNITTNHIAAHLAISPGNLYYHFRNKSDIIYEIFQEYEKLVDYYLDIPEDRPITLEDMTFYLESVFDGLWSYRFFHRDLEYLLDSDPRLRQDYREFTNRCLAAINRIFAKLADAGIIQPQPEDLRSAMSLNVWLVITNWMAFLKTAHAAEEPASLSLTELKQGIYQVLTLEVPYLTPEYRERVLALREKYRPTLPEAQGISGVEA	not soluble
MRPVLLLCCLFLSATAQAEDCSPQTSVGSWCELPLAALHPTQQNVGLLQVEDDQAKLAGKKPKALERYLRKKEIPVVIGPGGRFYLTDRHHLSSALWRLDPKQGVPVKVIGRLPQASDFWEKMQENHWVWLHDARGAEIPPEALPDALAGLGDDPYRALAGYAEDENAFDKDRQSYFIEFHWARYFGERMHWRPISRATLPDDLKQALRLACEPAARELPGYRQDCPHKLAAALEHHHHHH	not soluble
MKSLSALEAEQWITIRSIFLIDLPFRSFSFSLPAEEKQDLQCNLQNLVNHNFSFLQVIHLQVSHINDADVLTGLNGRIGSFLLPSIATGTGTATGTAATTGASAITASSRSRRILGDEFEDHVIVPATCGSRAVVGKPQRIIDLETKVDTSNIPHRTVLFLFHTGTSKRGIENPQAVNLHLIPCYEHLLHRADKGLHHMLHIFHRKRTDRLDLTRQRLDRIKFRFPRLGFEHIHHRRFVITNLFFALIAHHRHCCHTEFVLKKRRTFSLSVGETKIRQCTGNFPDYDGLCRTMTG	not soluble
MGSDKIHHHHHHMNPVLKSSKLVIFDLDGTLYEGTDHFDYYANHLKQNVPQSQQLDFWRDYTAMKDGHHPVQIGKGYDVKRDYILTIDPMTISVQSVQTWDGSYVPAEEWETLYSDPVSFDFETIIAVGDGWWYPFVTAKHYGVEDCYASYVATKEYMVTDEFELTPLPGLREGLIELKATKEIVLVTNSDREDVQRLLHELHLHDVFNHIITSAKKPTRTTDIFKEVVHQYEVDMSQVVSVGDNFMNEIAQALTLGMQGIYIHPQRASEVAHDHLTVIRSVVELFKN	not soluble
MAICESGALPSHVGALSYSGGAASSFFGRRNADGLNDKWLALRDAFRAAGGDLLAIEDARSAALDFVIHVNAHRLRHDVPAFVILAESEFIHPPNVDWRMLQQYKGIFTWMPDLVRRGIGTEICLAHPLGAGVVDGYQERPQLLVMIASNKALPVWRPAVDLYRERVRAIRWFEKHAPQAFALYGHDWDKSPRLPTPLGGIVHGVEFVLPWRLQWFPSWKGVIPSKREVLRHARFSLCYENVRGLRGYITEKIFDAFCAGNVPVYWGAEDITDYIPADCFIDRRAFGDYADLYRYLTSMPETRYIQYQQAICDFLVSPAAKRFSSEIFATTIVGKVLDTLGRRDE	not soluble
MRQVDFFTLRLFLSAVEEGQIGRAALRENIAPSAATKRIQELEDVVGLRLLERTPKGVILSPAGEVLVRHIRQIFTNVDELRAELSAFSEGVRGEVSVASARSIIAPYLAHEFGAYIRDYPLVDLIVREVENAAIVQAVAQGDADIGVFAAAPALDLSGVDVMPYRQDRMVVVMSHGHRLAQRQSVTFEDLLSENLIVPAALHMALRTAADRLGREFEPKYGVTSAGVAISLAQEGLGVTIQPECLLDLKVFEHAVGVELAESWANRSIHIATARGRAAGPAANLLLKQLLDRPRALSSVSD	not soluble
MGSDKIHHHHHHVLNNLGQTRYVVPRPHPQLVTTRTLVMQRIDGFNFDDVTGMQDAGIDTEDVIRTGMVAFMEGALIHGIFHGDLHGGNLFVLPDGRTALLDFGITARLDDDRRRAFLRLMMTATTNDLTGQMAALRDLGALPLDTDLQAVIRDLRLDEAPIDPTTLSGEEMVAEVQRVVKALLSYGARLPKELMLYVKNMVFLDGAIARLAPDLDLLAEVANISMMFASRHGERLMTEIGIDAANMQVNLDSVKAGFGVDLSTDRLTYRELQERRELIQKRMRSHVERTRRSAN	not soluble
MHLYYLGPKGTFSYLAAKQFESHEQYDFIPLSNLHEVIQSVSKDKQAVGIVPIENSIEGTINIVADSLAHHDVYAHGEIQLDIDFSLYGHHSNSLDDIHKVYSIAPAISQTINYIHRQQFDYDYVDSTIQSLNMIKDGIGAIAPLGSGETYGYHTLDQHIQDYPHNVTRFLVVKNHTHFIEHPNTTIFLITPKYDKPGLLASVLNTFTLFNINLSWIESRPLKTQLGMYHFYVQADTAINNDVNKIISILETLDFQVKIIGAFNKKN	not soluble

— the DeepSol protein solubility set
